The values below are quoted from earlier work in US20190390191A1, “CONSTRUCTING ENZYME-BASED SENSORS” (PharmaSeq, Inc., priority 2018, published 2019).

Usually Km stands for the substrate concentration at which the rate is half of its maximum.

For data set [1] the following is noted: for T. aquaticus; Yeh et al.
For data set [2] the following is noted: E. coli enzyme; Boulanger et al.

As for Alkaline phosphatase, in data set [1], the Michaelis constant (Km) was 840 µM.

On to “Alkaline phosphatase of E. coli: zinc-containing dimeric enzyme encoded by the phoA gene of E. coli”, for which the Tm in data set [2] is 97 °C.
